Data as given in publication PMC10577934, “Semi-rational engineering an aldo–keto reductase for stereocomplementary reduction of α-keto amide compounds” (Microbial Cell Factories, 2023).
Substitutions are numbered along the chain they refer to. Names and notes keep the numbering of the source.

B1: iolS (Bacillus subtilis subsp. subtilis str. 168) (protein)
chain: MKKAKLGKSDLQVFPIGLGTNAVGGHNLYPNLNEETGKELVREAIRNGVTMLDTAYIYGIGRSEELIGEVLREFNREDVVIATKAAHRKQGNDFVFDNSPDFLKKSVDESLKRLNTDYIDLFYIHFPDEHTPKDEAVNALNEMKKAGKIRSIGVSNFSLEQLKEANKDGLVDVLQGEYNLLNREAEKTFFPYTKEHNISFIPYFPLVSGLLAGKYTEDTTFPEGDLRNEQEHFKGERFKENIRKVNKLAPIAEKHNVDIPHIVLAWYLARPEIDILIPGAKRADQLIDNIKTADVTLSQEDISFIDKLFA
notes: pET28a, His-tagged, expressed in E. coli BL21(DE3), Ni-NTA purified
B2: iolS (Bacillus subtilis subsp. subtilis str. 168; F126L/I57F) (protein)
chain: B1 chain with I57F, F126L
notes: as for B1
B3: iolS (Bacillus subtilis subsp. subtilis str. 168; F126A/N21A) (protein)
chain: B1 chain with N21A, F126A
notes: as for B1
B4: iolS (Bacillus subtilis subsp. subtilis str. 168; N21A) (protein)
chain: B1 chain with N21A
notes: as for B1
B5: iolS (Bacillus subtilis subsp. subtilis str. 168; F126L) (protein)
chain: B1 chain with F126L
notes: as for B1
B6: iolS (Bacillus subtilis subsp. subtilis str. 168; I57F) (protein)
chain: B1 chain with I57F
notes: as for B1

substrate: O=C(Nc1ccccc1)C(=O)c1ccccc1; test: initial velocity by HPLC of product, nonlinear Michaelis-Menten fit; format: biochemical, Bacillus subtilis; details: NAD(P)H cofactor, potassium phosphate 100 mM pH 7.0, 30 °C
Text: initial velocity by HPLC of product, nonlinear Michaelis-Menten fit on iolS

Row | Protein | Km [µM] | kcat [s⁻¹] | kcat/Km [M⁻¹ s⁻¹]
1 | B1 | 1810 ± 130 | 3.53 ± 0.12 | 1950
2 | B2 | 1710 ± 110 | 4.32 ± 0.14 | 2510
3 | B3 | 1650 ± 120 | 6.4 ± 0.25 | 3880
4 | B4 | 1160 ± 160 | 4.1 ± 0.12 | 3530
5 | B5 | 1550 ± 220 | 3.81 ± 0.13 | 2450
6 | B6 | 1720 ± 130 | 3.96 ± 0.23 | 2320
